From patent US20060039918A1 (University of California, published 2006) come the findings set out here.

[ ]: non-standard residue; d: D form. The star is where a group is joined. Biotin = O=C1N[C@H]2[C@H](CS[C@H]2CCCCC(=O)*)N1; code J = not defined here

The target of the experiment is T1, HLA DRB1*0401 molecules (biotinylated recombinant HLA-DR4) (human).
T1 construct: Recombinant and biotinylated; also called biotinylated recombinant MHC
Nature of the experiment: loading of biotinylated recombinant HLA-DR4 with peptide for aAPCs and tetramers.

B1: PADRE (-) peptide (UAJAAAATLKAA) (peptide)
peptide: Biotin-[code U]A[code J]AAAATLKAA-NH2
modifications: reading uncertain
notes: Synthetic control peptide used to set the background in the T cell capture assay; also called negative control PADRE (-)
B1: the binding result is listed as “binds”.

B2: dnaJP1 peptide (QKRAAYDQYGHAAFE) (peptide)
peptide: Biotin-QKRAAYDQYGHAAFE-NH2
SMILES: C[C@H](NC(=O)[C@H](C)NC(=O)[C@H](Cc1c[nH]cn1)NC(=O)CNC(=O)[C@H](Cc1ccc(O)cc1)NC(=O)[C@H](CCC(N)=O)NC(=O)[C@H](CC(=O)O)NC(=O)[C@H](Cc1ccc(O)cc1)NC(=O)[C@H](C)NC(=O)[C@H](C)NC(=O)[C@H](CCCNC(=N)N)NC(=O)[C@H](CCCCN)NC(=O)[C@H](CCC(N)=O)NC(=O)CCCC[C@@H]1SC[C@@H]2NC(=O)N[C@@H]21)C(=O)N[C@@H](Cc1ccccc1)C(=O)N[C@@H](CCC(=O)O)C(N)=O
notes: Synthetic peptide
As for B2, the binding result was “binds”.
